Values belong to the molecule of their own block, whether it stands above or below them.
B1: PBP4 (penicillin binding protein 4, DD-carboxy/endopeptidase) of Escherichia coli, wild type, purified (enzyme)
chain: ANVDEYITQLPAGANLALMVQKVGASAPAIDYHSQQMALPASTQKVITALAALIQLGPDFRFTTTLETKGNVENGVLKGDLVARFGADPTLKRQDIRNMVATLKKSGVNQIDGNVLIDTSIFASHDKAPGWPWNDMTQCFSAPPAAAIVDRNCFSVSLYSAPKPGDMAFIRVASYYPVTMFSQVRTLPRGSAEAQYCELDVVPGDLNRFTLTGCLPQRSEPLPLAFAVQDGASYAGAILKDELKQAGITWSGTLLRQTQVNEPGTVVASKQSAPLHDLLKIMLKKSDNMIADTVFRMIGHARFNVPGTWRAGSDAVRQILRQQAGVDIGNTIIADGSGLSRHNLIAPATMMQVLQYIAQHDNELNFISMLPLAGYDGSLQYRAGLHQAGVDGKVSAKTGSLQGVYNLAGFITTASGQRMAFVQYLSGYAVEPADQRNRRIPLVRFESRLYKDIYQNN

Tests used:
[1] = molecular target: PBP4 lacking domain 3 (PBP4ΔD3), purified (Escherichia coli) (UniProt P24228); experiment: AUC
[2] = molecular target: LpoA, full length version, purified (Escherichia coli) (UniProt P45464); experiment: MST
[3] = molecular target: N-terminal domain of LpoA (LpoA^N, residues G28-T256) (Escherichia coli) (UniProt P45464); experiment: MST
AUC = molecular target: the molecule itself; experiment: AUC
[4] = molecular target: B1; experiment: pull-down

Sequence of N-terminal domain of LpoA (LpoA^N, residues G28-T256) (Escherichia coli) (P45464 28-256): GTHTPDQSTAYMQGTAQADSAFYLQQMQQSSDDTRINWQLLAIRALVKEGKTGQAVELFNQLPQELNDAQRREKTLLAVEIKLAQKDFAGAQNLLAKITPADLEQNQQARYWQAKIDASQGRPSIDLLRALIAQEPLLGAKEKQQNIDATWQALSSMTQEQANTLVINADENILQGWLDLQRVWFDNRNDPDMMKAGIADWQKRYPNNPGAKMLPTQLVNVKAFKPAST
Sequence of LpoA, full length version, purified (Escherichia coli) (P45464 27-678): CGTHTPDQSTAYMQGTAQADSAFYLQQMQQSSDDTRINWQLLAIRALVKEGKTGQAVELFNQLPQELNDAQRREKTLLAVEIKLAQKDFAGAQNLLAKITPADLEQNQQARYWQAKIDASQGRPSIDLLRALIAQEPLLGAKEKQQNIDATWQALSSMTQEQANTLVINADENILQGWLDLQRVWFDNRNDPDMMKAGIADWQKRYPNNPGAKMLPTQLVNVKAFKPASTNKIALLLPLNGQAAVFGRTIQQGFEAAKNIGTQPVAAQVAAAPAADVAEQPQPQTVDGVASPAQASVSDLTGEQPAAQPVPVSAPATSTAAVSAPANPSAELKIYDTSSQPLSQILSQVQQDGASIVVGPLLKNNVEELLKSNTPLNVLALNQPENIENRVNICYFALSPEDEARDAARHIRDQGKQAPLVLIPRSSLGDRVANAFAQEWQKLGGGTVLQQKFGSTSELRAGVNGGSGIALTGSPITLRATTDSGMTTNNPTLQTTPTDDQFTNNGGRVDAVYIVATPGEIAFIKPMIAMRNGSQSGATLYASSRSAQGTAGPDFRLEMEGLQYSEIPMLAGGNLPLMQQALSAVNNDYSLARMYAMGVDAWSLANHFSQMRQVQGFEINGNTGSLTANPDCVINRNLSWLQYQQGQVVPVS

stoichiometry N [1]: 2 | Kd [2]: 153 nM | fold decrease of app. KD against wild-type PBP4 [3]: 50 fold
Molecule: PBP4 lacking domain 3 (PBP4ΔD3), purified (from UniProt P24228 21-477) (enzyme)

Molecule: B1
stoichiometry N (AUC): 2

binding result [4]: binds
B2: Oligo-histidine tagged NlpI (His-NlpI) (natural protein, Escherichia coli, UniProt P0AFB1 19-294, looked up)
chain: CSNTSWRKSEVLAVPLQPTLQQEVILARMEQILASRALTDDERAQLLYERGVLYDSLGLRALARNDFSQALAIRPDMPEVFNYLGIYLTQAGNFDAAYEAFDSVLELDPTYNYAHLNRGIALYYGGRDKLAQDDLLAFYQDDPNDPFRSLWLYLAEQKLDEKQAKEVLKQHFEKSDKEQWGWNIVEFYLGNISEQTLMERLKADATDNTSLAEHLSETNFYLGKYYLSLGDLDSATALFKLAVANNVHNFVEHRYALLELSLLGQDQDDLAESDQQ
